Patent publication US20200262877A1, “ION CHANNEL-BINDING PEPTIDES AND METHODS OF USE THEREOF” (priority 2017, published 2020)

What was measured:
[1] = molecular target: T1, 5HT3a (Homo sapiens, UniProt P46098); assay: Ion channel panel (IonWorks Barracuda): 5HT3a; type: cell-based
T1 construct: host or cells: HEK293 or CHO
T1 sequence (P46098 whole entry, looked up): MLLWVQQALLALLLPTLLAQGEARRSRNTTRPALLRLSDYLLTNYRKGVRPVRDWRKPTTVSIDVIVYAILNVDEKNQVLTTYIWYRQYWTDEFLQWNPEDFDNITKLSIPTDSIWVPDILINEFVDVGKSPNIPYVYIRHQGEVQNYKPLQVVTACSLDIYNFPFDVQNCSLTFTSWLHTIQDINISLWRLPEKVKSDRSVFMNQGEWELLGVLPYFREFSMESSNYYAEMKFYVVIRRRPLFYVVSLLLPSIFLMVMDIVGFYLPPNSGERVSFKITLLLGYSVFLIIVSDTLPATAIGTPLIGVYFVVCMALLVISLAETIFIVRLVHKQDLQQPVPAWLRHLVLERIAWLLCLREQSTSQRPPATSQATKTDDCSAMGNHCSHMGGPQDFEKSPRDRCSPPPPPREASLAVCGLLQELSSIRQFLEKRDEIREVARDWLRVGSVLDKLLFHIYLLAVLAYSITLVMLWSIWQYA
Procedure: (§1) This example describes a method for assaying ion channel activity in cells.
(§2) Peptides were screened in duplicate at final concentrations of 20 μM and 200 nM, as determined by amino acid analysis, and diluted into HEPES buffered physiological saline (HBPS). HEK293 or CHO cells from the American Type Culture Collection (ATCC) were transfected with the appropriate ion channel before use. HEK293 cells were grown in Dulbecco's Modified Eagle Medium/Nutrient Mixture F-12, and CHO cells were cultured in Ham's F-12 media. All cultures were supplemented with 10% fetal bovine serum, 100 U/ml penicillin G, 100 μg/ml streptomycin sulfate, and the appropriate selection antibiotics. Prior to use, cells were washed twice with Hank's Balanced Salt Solution, and treated with Accutase cell detachment solution (Sigma-Aldrich). Cells were then washed. Peptides and controls were incubated with cells for at least five minutes.
(§3) Percent inhibition was defined as: (1-(Ipeptide/Icontrol))×100%).
(§4) Percent values were calculated using the following formula: % activation=(IPeptide/Icontrol)×100%, where IPeptide is the current produced by co-application a peptide with agonist, and Icontrol refers to the current produced by stimulation in control. Control used for each ion channel is the reference compound matched to a particular channel, as illustrated in TABLE 10 below.

[2] = molecular target: T2, α3β4 (Homo sapiens, UniProt P30926+P32297); assay: Ion channel panel (IonWorks Barracuda): α3β4; type: cell-based; details: 100% = no change, <100% = inhibition
T2 construct: host or cells: HEK293 or CHO
Procedure: as §1, §2, §3, §4

[3] = molecular target: T3, α4β2 (Homo sapiens, UniProt P17787+P43681); assay: Ion channel panel (IonWorks Barracuda): α4β2; type: cell-based; details: 100% = no change, <100% = inhibition
T3 construct: host or cells: HEK293 or CHO
Procedure: as §1, §2, §3, §4

[4] = molecular target: T4, Cav2.1 (Homo sapiens, UniProt O00555); assay: cell-based; details: 100% = no change, <100% = inhibition
T4 construct: host or cells: HEK293 or CHO
Procedure: as §1, §2, §3, §4

[5] = molecular target: T5, Cav2.2 (Homo sapiens, UniProt Q00975); assay: cell-based; details: 100% = no change, <100% = inhibition
T5 construct: host or cells: HEK293 or CHO
Procedure: as §1, §2, §3, §4

[6] = molecular target: T6, Kv2.1 (Homo sapiens, UniProt Q14721); assay: cell-based; details: 100% = no change, <100% = inhibition
T6 construct: host or cells: HEK293 or CHO
Procedure: as §1, §2, §3, §4

[7] = system: GABA; assay: Ion channel panel (IonWorks Barracuda): GABA; type: cell-based; details: 100% = no change, <100% = inhibition
Procedure: as §1, §2, §3, §4

[8] = molecular target: Nav1.5 (Homo sapiens, UniProt Q14524); assay: in vitro; details: 100% = no change; for Activity of Nav1.5 with peptide, expressed as a percentage of the reference compound: peptide at 0.2 μM; for Activity of Nav1.5 with peptide (percentage of the reference compound): peptide at 20 μM
Nav1.5, sequence (Q14524 whole entry): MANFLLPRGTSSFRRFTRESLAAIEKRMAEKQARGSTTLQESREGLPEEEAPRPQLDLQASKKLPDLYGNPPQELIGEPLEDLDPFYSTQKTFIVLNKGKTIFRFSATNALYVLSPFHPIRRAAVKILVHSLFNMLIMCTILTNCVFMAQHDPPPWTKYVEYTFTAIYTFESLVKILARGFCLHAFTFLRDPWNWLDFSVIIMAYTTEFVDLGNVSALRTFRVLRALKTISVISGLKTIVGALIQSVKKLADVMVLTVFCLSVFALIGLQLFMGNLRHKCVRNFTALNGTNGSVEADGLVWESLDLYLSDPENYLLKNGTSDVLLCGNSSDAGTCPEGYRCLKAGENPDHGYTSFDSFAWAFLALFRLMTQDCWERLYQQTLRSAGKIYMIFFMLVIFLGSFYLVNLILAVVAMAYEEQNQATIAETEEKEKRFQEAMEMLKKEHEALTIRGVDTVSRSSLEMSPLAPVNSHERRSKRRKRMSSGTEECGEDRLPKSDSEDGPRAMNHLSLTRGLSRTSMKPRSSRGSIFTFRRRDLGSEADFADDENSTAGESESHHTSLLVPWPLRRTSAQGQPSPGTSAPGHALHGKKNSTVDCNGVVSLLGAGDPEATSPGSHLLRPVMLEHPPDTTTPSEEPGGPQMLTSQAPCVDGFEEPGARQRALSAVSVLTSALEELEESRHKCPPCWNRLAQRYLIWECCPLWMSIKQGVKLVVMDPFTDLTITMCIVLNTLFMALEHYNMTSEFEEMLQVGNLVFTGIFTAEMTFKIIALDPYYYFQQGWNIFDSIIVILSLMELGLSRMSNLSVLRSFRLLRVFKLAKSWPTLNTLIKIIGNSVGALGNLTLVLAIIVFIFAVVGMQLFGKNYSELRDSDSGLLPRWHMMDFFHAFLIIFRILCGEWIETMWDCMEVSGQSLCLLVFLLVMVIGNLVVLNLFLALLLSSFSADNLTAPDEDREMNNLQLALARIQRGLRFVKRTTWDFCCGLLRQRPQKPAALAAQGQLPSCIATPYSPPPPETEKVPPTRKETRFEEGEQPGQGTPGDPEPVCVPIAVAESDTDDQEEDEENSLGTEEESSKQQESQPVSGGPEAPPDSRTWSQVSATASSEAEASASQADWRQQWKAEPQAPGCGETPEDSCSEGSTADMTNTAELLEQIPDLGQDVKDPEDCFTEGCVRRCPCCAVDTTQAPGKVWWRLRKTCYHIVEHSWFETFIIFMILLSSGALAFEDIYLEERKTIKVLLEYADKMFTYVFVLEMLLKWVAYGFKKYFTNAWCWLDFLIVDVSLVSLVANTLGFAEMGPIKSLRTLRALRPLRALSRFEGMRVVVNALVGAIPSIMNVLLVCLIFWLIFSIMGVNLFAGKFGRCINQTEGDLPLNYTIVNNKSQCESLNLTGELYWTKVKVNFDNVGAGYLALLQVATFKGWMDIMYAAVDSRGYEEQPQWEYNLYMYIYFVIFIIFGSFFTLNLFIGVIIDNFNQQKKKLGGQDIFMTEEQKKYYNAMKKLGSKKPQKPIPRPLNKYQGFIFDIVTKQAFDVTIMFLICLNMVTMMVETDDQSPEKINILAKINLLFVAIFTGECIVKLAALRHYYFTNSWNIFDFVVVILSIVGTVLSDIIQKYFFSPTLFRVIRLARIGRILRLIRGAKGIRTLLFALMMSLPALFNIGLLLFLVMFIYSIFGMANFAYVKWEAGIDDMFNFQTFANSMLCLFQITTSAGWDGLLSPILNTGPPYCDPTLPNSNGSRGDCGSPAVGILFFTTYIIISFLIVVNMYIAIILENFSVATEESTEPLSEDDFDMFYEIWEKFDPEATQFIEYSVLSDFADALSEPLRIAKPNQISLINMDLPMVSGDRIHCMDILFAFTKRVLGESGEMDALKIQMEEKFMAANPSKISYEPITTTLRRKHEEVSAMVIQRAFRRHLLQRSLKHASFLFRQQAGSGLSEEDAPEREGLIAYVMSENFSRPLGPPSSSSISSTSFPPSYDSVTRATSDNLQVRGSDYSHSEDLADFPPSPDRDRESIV
Procedure: as §1, §2, §3, §4

[9] = molecular target: hERG (Homo sapiens, UniProt Q12809); assay: in vitro; details: 100% = no change, <100% = inhibition
Procedure: as §1, §2, §3, §4

[10] = molecular target: T7, Kir2.1 (Homo sapiens, UniProt P63252); assay: Ion channel panel (IonWorks Barracuda): Kir2.1; type: cell-based; details: 100% = no change, <100% = inhibition
T7 construct: host or cells: HEK293 or CHO
Procedure: as §1, §2, §3, §4

[11] = molecular target: T8, Kv1.1 (Homo sapiens, UniProt Q09470); assay: cell-based; type: cell-based; details: 100% = no change, <100% = inhibition
T8 construct: host or cells: HEK293 or CHO
Procedure: as §1, §2, §3, §4

[12] = molecular target: T9, Kv1.2 (Homo sapiens, UniProt P16389); assay: cell-based; type: cell-based; details: 100% = no change, <100% = inhibition
T9 construct: host or cells: HEK293 or CHO
Procedure: as §1, §2, §3, §4

[13] = molecular target: T10, Kv1.3 (Homo sapiens, UniProt P22001); assay: cell-based; type: cell-based; details: 100% = no change, <100% = inhibition
T10 construct: host or cells: HEK293 or CHO
Procedure: as §1, §2, §3, §4

[14] = molecular target: T11, Nav1.7 (Homo sapiens, UniProt Q15858); assay: cell-based; type: cell-based; details: 100% = no change; for Activity of Nav1.7 with peptide, expressed as a percentage of the reference compound: peptide at 0.2 μM; for Activity of Nav1.7 with peptide (percentage of the reference compound): peptide at 20 μM
T11 construct: host or cells: HEK293 or CHO
T11 sequence (Q15858 whole entry): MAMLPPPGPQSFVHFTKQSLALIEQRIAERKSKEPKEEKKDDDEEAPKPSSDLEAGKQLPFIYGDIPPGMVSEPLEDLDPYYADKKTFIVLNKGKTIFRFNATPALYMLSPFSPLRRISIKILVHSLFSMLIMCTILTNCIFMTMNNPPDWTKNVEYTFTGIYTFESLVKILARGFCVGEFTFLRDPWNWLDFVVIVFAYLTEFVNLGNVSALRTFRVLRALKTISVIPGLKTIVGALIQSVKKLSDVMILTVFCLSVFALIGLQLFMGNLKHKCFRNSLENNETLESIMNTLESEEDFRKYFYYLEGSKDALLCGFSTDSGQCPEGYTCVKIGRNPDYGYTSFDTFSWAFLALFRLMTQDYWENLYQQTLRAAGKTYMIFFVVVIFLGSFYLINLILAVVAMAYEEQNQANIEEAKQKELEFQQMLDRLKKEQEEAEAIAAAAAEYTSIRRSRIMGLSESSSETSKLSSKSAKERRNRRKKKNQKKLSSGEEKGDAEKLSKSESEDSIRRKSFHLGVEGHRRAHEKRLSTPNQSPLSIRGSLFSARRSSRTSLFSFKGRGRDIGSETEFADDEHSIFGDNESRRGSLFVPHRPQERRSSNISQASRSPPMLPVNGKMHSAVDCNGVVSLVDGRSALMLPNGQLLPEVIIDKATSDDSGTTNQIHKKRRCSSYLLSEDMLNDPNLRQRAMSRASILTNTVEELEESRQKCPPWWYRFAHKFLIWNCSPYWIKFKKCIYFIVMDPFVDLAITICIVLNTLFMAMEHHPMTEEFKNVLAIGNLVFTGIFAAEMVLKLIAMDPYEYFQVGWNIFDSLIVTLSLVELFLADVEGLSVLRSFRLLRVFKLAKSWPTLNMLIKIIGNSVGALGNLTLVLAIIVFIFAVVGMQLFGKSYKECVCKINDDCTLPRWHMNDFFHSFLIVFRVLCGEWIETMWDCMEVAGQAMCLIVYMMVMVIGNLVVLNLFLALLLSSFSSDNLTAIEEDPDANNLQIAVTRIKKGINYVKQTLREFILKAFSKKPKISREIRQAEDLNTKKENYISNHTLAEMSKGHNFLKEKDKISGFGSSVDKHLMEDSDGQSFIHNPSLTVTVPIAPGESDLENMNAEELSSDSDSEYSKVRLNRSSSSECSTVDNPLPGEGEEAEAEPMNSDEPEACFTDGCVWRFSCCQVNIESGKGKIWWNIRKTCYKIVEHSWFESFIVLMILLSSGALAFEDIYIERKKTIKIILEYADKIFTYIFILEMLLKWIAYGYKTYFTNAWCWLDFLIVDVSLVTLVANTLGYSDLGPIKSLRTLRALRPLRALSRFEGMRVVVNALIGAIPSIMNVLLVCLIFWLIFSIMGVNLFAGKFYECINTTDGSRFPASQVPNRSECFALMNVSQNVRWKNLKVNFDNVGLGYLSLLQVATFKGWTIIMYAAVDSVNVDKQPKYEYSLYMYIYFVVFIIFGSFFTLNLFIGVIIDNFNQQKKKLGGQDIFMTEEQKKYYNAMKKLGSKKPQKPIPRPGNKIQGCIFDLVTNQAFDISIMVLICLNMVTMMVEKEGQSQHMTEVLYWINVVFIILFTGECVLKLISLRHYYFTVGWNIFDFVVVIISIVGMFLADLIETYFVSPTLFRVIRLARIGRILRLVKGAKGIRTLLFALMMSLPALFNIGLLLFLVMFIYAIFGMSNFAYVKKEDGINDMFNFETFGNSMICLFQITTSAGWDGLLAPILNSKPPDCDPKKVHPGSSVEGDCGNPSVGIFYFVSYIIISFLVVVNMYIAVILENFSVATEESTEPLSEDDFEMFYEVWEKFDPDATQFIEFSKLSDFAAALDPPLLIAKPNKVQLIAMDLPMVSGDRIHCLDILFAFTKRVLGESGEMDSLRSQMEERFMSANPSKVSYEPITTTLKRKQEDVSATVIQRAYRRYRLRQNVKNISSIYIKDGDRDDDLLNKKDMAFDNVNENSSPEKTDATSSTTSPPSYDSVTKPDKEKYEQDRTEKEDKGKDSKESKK
Procedure: as §1
as §2, with “Peptides were screened in duplicate at final concentrations of 20 μM and 200 nM, as determined by amino acid analysis, and diluted into HEPES buffered physiological saline (HBPS).” left out
as §3, §4

[15] = molecular target: T12, NR2A (Homo sapiens, UniProt Q12879); assay: Ion channel panel (IonWorks Barracuda): NR2A; type: cell-based; details: 100% = no change, <100% = inhibition
T12 construct: host or cells: HEK293 or CHO
Procedure: as §1, §2, §3, §4

[16] = molecular target: T13, NR2B (Homo sapiens, UniProt Q13224); assay: Ion channel panel (IonWorks Barracuda): NR2B; type: cell-based; details: 100% = no change, <100% = inhibition
T13 construct: host or cells: HEK293 or CHO
Procedure: as §1, §2, §3, §4

[17] = molecular target: T14, TRPA1 (Homo sapiens, UniProt O75762); assay: Ion channel panel (IonWorks Barracuda): TRPA1; type: cell-based; details: 100% = no change, <100% = inhibition
T14 construct: host or cells: HEK293 or CHO
Procedure: as §1, §2, §3, §4

[18] = molecular target: T15, TRPV1 (Homo sapiens, UniProt Q8NER1); assay: Ion channel panel (IonWorks Barracuda): TRPV1; type: cell-based; details: 100% = no change, <100% = inhibition
T15 construct: host or cells: HEK293 or CHO
T15 sequence (Q8NER1 whole entry): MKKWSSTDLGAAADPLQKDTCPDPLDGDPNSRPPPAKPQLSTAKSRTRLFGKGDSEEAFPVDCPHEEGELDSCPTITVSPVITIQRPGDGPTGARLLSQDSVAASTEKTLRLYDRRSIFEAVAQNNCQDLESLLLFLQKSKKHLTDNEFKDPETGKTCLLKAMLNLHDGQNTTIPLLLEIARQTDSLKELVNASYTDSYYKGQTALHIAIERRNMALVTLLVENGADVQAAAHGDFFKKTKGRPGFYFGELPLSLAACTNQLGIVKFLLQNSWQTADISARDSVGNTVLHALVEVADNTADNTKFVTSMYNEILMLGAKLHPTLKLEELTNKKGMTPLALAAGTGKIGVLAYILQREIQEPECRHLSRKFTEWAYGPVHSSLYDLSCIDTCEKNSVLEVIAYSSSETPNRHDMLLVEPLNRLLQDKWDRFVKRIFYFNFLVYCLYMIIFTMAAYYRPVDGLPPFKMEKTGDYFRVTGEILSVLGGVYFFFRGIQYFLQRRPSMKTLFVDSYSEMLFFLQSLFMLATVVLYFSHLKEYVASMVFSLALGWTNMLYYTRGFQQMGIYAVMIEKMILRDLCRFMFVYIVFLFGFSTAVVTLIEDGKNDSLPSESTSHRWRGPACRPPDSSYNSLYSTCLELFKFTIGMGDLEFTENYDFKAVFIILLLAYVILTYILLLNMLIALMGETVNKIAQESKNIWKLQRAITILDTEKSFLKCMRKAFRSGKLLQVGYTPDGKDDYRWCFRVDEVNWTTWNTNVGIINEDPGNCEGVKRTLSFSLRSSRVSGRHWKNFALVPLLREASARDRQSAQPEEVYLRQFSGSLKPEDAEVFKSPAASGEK
Procedure: as §1, §2, §3, §4

[19] = first of two Nav1.5 columns (probably TP1)
[20] = second of two Nav1.5 columns (probably TP2)
[21] = first of two Nav1.7 columns (probably TP1)
[22] = second of two Nav1.7 columns (probably TP2)

Substance: 5 (GSGVPINVKCRGSRDCLDPCKKAGMRFGKCINSKCHCTP) [compound 5]
- Activity of 5HT3a with peptide (percentage of the reference compound) [1]: 80%
- Activity of 5HT3a with peptide, expressed as a percentage of the reference compound [1]: 94%
- Activity of a3b4 with peptide, expressed as a percentage of the reference compound ([2]; peptide at 0.2 μM): 104%
- Activity of a3b4 with peptide (percentage of the reference compound) ([2]; peptide at 20 μM): 90%
- Activity of a4b2 with peptide, expressed as a percentage of the reference compound ([3]; peptide at 0.2 μM): 83%
- Activity of a4b2 with peptide (percentage of the reference compound) ([3]; peptide at 20 μM): 93%
- Activity of Cav2.1 with peptide, expressed as a percentage of the reference compound ([4]; peptide at 0.2 μM): 100%
- Activity of Cav2.1 with peptide (percentage of the reference compound) ([4]; peptide at 20 μM): 121%
- Activity of Cav2.2 with peptide, expressed as a percentage of the reference compound ([5]; peptide at 0.2 μM): 94%
- Activity of Cav2.2 with peptide (percentage of the reference compound) ([5]; peptide at 20 μM): 117%
- Activity of Kv2.1 with peptide, expressed as a percentage of the reference compound ([6]; peptide at 0.2 μM): 110%
- Activity of Kv2.1 with peptide (percentage of the reference compound) ([6]; peptide at 20 μM): 109%
- Activity of GABA with peptide, expressed as a percentage of the reference compound ([7]; peptide at 0.2 μM): 109%
- Activity of GABA with peptide (percentage of the reference compound) ([7]; peptide at 20 μM): 114%
- Activity of Nav1.5 with peptide, expressed as a percentage of the reference compound [8, 19]: 107%
- Activity of Nav1.5 with peptide, expressed as a percentage of the reference compound [8, 20]: 107%
- Activity of Nav1.5 with peptide (percentage of the reference compound) [8, 19]: 103%
- Activity of Nav1.5 with peptide (percentage of the reference compound) [8, 20]: 105%
- Activity of hERG with peptide, expressed as a percentage of the reference compound ([9]; peptide at 0.2 μM): 106%
- Activity of hERG with peptide (percentage of the reference compound) ([9]; peptide at 20 μM): 67%
- Activity of Kir2.1 with peptide, expressed as a percentage of the reference compound ([10]; peptide at 0.2 μM): 103%
- Activity of Kir2.1 with peptide (percentage of the reference compound) ([10]; peptide at 20 μM): 86%
- Activity of Kv1.1 with peptide, expressed as a percentage of the reference compound ([11]; peptide at 0.2 μM): 86%
- Activity of Kv1.1 with peptide (percentage of the reference compound) ([11]; peptide at 20 μM): 55%
- Activity of Kv1.2 with peptide, expressed as a percentage of the reference compound ([12]; peptide at 0.2 μM): 89%
- Activity of Kv1.2 with peptide (percentage of the reference compound) ([12]; peptide at 20 μM): 73%
- Activity of Kv1.3 with peptide, expressed as a percentage of the reference compound ([13]; peptide at 0.2 μM): 98%
- Activity of Kv1.3 with peptide (percentage of the reference compound) ([13]; peptide at 20 μM): 28%
- Activity of Nav1.7 with peptide, expressed as a percentage of the reference compound [14, 21]: 98%
- Activity of Nav1.7 with peptide, expressed as a percentage of the reference compound [14, 22]: 109%
- Activity of Nav1.7 with peptide (percentage of the reference compound) [14, 21]: 79%
- Activity of Nav1.7 with peptide (percentage of the reference compound) [14, 22]: 66%
- Activity of NR2A with peptide, expressed as a percentage of the reference compound ([15]; peptide at 0.2 μM): 109%
- Activity of NR2A with peptide (percentage of the reference compound) ([15]; peptide at 20 μM): 86%
- Activity of NR2B with peptide, expressed as a percentage of the reference compound ([16]; peptide at 0.2 μM): 112%
- Activity of NR2B with peptide (percentage of the reference compound) ([16]; peptide at 20 μM): 95%
- Activity of TRPA1 with peptide, expressed as a percentage of the reference compound ([17]; peptide at 0.2 μM): 119%
- Activity of TRPA1 with peptide (percentage of the reference compound) ([17]; peptide at 20 μM): 75%
- Activity of TRPV1 with peptide, expressed as a percentage of the reference compound ([18]; peptide at 0.2 μM): 101%
- Activity of TRPV1 with peptide (percentage of the reference compound) ([18]; peptide at 20 μM): 101%
